The values below come from IntAct's records for PubMed 25727097.

Sequences and labels used below:
B1: 5-hydroxytryptamine receptor 2C (Homo sapiens), P28335-1 (parent)
chain: MVNLRNAVHSFLVHLIGLLVWQSDISVSPVAAIVTDIFNTSDGGRFKFPDGVQNWPALSIVIIIIMTIGGNILVIMAVSMEKKLHNATNYFLMSLAIADMLVGLLVMPLSLLAILYDYVWPLPRYLCPVWISLDVLFSTASIMHLCAISLDRYVAIRNPIEHSRFNSRTKAIMKIAIVWAISIGVSVPIPVIGLRDEEKVFVNNTTCVLNDPNFVLIGSFVAFFIPLTIMVITYCLTIYVLRRQALMLLHGHTEEPPGLSLDFLKCCKRNTAEEENSANPNQDQNARRRKKKERRPRGTMQAINNERKASKVLGIVFFVFLIMWCPFFITNILSVLCEKSCNQKLMEKLLNVFVWIGYVCSGINPLVYTLFNKIYRRAFSNYLRCNYKVEKKPPVRQIPRVAATALSGRELNVNIYRHTNEPVIEKASDNEPGIEMQVENLELPVNPSSVVSERISSV

Variants of B1 are the subject of this assay. The following applies: with GHSR.
Regarding I156V;N158S;I160V, the “effect of a mutation on the interaction” value is reported as “increasing interaction strength”.
